# ± gives the uncertainty stated by the source.
# Test: protein stability index of a GFP-peptide fusion (yeast GPS) (PSI 1-4); higher = more stable; sorted into four equal gates, so the index is relative within each strain
# How it was run: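 Mid-log yeast cultures in leucine-free medium, carrying a pooled plasmid library, were sorted into four equal gates by their GFP/Cherry fluorescence ratio. Each plasmid expressed Cherry along with GFP fused upstream of a tiled 17-residue yeast protein peptide. Plasmids recovered from each gate were PCR-amplified and Illumina-sequenced, with reads assigned to strains by barcodes. The protein stability index was obtained by summing each gate's read frequency weighted by its gate number.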
Sequence,protein stability index (doa10∆),protein stability index (pdr5∆),protein stability index (san1∆),protein stability index (ubr1∆)
ITLRTSGELLQGIVRVY [MCD1],2.96 ± 0.075,2.9 ± 0.063,2.48 ± 0.066,3.12 ± 0.057
RMRFPPFDDDEPPLSYE [PRP8],2.63 ± 0.047,3.06 ± 0.051,2.95 ± 0.035,2.61 ± 0.034
SLQDNSAAINNEDARAI [RPN4],3.12 ± 0.078,3.19 ± 0.057,2.94 ± 0.055,3.18 ± 0.05
RGGGHHSFEDAHTPMLQ [FAS1],3.3 ± 0.26,3.48 ± 0.21,,
ENGRRINELTLLVQKRF [RPS3],3.51 ± 0.27,3.42 ± 0.11,3.55 ± 0.13,3.32 ± 0.12
EKGKKVSGFKDEVLETV [RPS1B],3.39 ± 0.11,2.82 ± 0.11,3.48 ± 0.11,3.44 ± 0.084
SAFMKFSKAIEWDMLNV [BRR2],2.15 ± 0.07,1.9 ± 0.072,1.99 ± 0.081,2.04 ± 0.045
TGKTLLAKAVAATIGAN [RPT4],1.46 ± 0.074,1.75 ± 0.084,1.68 ± 0.16,2.08 ± 0.13
ILLEPIYEVDITVHAPL [SNU114],2.57 ± 0.049,2.56 ± 0.06,2.43 ± 0.085,2.47 ± 0.046
DEEMTISQKLHDSILHS [RRP43],2.7 ± 0.052,2.74 ± 0.035,2.82 ± 0.03,2.92 ± 0.035
PLNKPLLTEELAKSGST [TAF14],2.25 ± 0.068,2.24 ± 0.064,2.94 ± 0.072,2.39 ± 0.054
QIDHFKSMLSKPETLSI [SWI3],2.61 ± 0.086,2.44 ± 0.074,2.73 ± 0.065,2.4 ± 0.048
VNNCIWALKSSLNSMTN [RGR1],2.71 ± 0.1,2.39 ± 0.22,,2.37 ± 0.16
NDENDDEFYINVDKNLN [RPN14],2.96 ± 0.19,2.72 ± 0.12,2.94 ± 0.11,3.05 ± 0.12
TLEDKFLLLAVNKYGLR [ISW2],2.31 ± 0.058,2.15 ± 0.058,1.9 ± 0.11,2.29 ± 0.049
RHHWQYTKASLAKERQK [SSN8],1.74 ± 0.072,1.66 ± 0.07,1.4 ± 0.14,2.14 ± 0.064
ELLEERFQDSNPYVRTK [YCS4],1.48 ± 0.037,1.76 ± 0.11,2.82 ± 0.076,2.8 ± 0.096
KEYENHSGELMRQQSKE [SMC1],2.83 ± 0.1,2.85 ± 0.077,2.9 ± 0.05,3 ± 0.082
FKQIKSADCELLGIDAT [RPO31],1.62 ± 0.083,1.8 ± 0.089,1.42 ± 0.16,2.08 ± 0.053
LHKLQRMRLRALETENM [GRR1],1.46 ± 0.046,1.92 ± 0.059,1.47 ± 0.077,1.38 ± 0.032
EENFEATRTLVASIQND [YCG1],3.03 ± 0.16,3.24 ± 0.11,3 ± 0.14,2.71 ± 0.14
WLWPLCRGELKADIGKP [CDC53],2.11 ± 0.078,2.06 ± 0.062,1.98 ± 0.089,2.43 ± 0.09
FELVSDLSYIEFLFESL [ECM29],2.88 ± 0.067,2.74 ± 0.077,2.97 ± 0.062,2.87 ± 0.049
NSTATMQHNPLAGKRGP [PGD1],3.05 ± 0.047,3.09 ± 0.044,3 ± 0.042,3.03 ± 0.033
SNIEQTESLRVENSVLI [YIL149C/MLP2],3.25 ± 0.091,3.09 ± 0.14,3.08 ± 0.049,3.07 ± 0.064
SNEIKVTNDLDTSAEKD [SIR4],3.29 ± 0.095,3.35 ± 0.062,3.26 ± 0.055,3.04 ± 0.055

Sequence,protein stability index (doa10∆),protein stability index (pdr5∆),protein stability index (san1∆),protein stability index (ubr1∆)
PFKVFLDIGLQRTTTGA [RPL5],1.63 ± 0.07,2.04 ± 0.074,2.23 ± 0.076,1.53 ± 0.053
RAIYSYLSGAIPNQEVL [YDL116W/NUP84],2.4 ± 0.066,2.58 ± 0.079,2.5 ± 0.089,2.76 ± 0.055
QEASKQYTKDEQFYTKD [RPN2],3.41 ± 0.085,3.3 ± 0.086,3.19 ± 0.083,3.25 ± 0.056
WQQVTALAQQKLLTPQD [GAL11],2.29 ± 0.058,2.38 ± 0.068,2.18 ± 0.085,2.45 ± 0.06
LLLLSLFKKITNVNPSK [YML103C/NUP188],1.89 ± 0.03,1.9 ± 0.027,2.24 ± 0.038,1.93 ± 0.027
LLREKQRVRNMRELGLI [YOR098C/NUP1],1.19 ± 0.19,1.14 ± 0.13,,1.13 ± 0.19
MIIFLKNYDATDKPFSS [CSI1],2.63 ± 0.059,2.85 ± 0.062,2.92 ± 0.05,2.92 ± 0.048
TISVPQIRDVMERFSVL [RRP6],2.58 ± 0.094,2.7 ± 0.097,2.5 ± 0.12,2.68 ± 0.13
SNIDYQTLLANSDHAKF [SNF2],2.24 ± 0.084,2.28 ± 0.093,2.32 ± 0.11,2.53 ± 0.075
GIEYNRVTNTTSTDFPG [RPC40],3.33 ± 0.22,3.33 ± 0.14,2.73 ± 0.082,2.94 ± 0.096
KSEFDDLSLNIHPIPSV [YMR129W/POM152],2.64 ± 0.043,2.92 ± 0.039,2.75 ± 0.032,2.76 ± 0.032
RYQIMLPEQLKSGKFCS [SNM1],2.74 ± 0.071,2.08 ± 0.09,2.7 ± 0.07,2.12 ± 0.061
IKGNGESDETTTDNNNS [RPT1],3.15 ± 0.15,,3.38 ± 0.04,3.53 ± 0.11
SRLTLLLRALKTNEESA [PRP8],1.91 ± 0.056,1.58 ± 0.058,1.84 ± 0.09,1.97 ± 0.044
NAKRSHMMKRWGYQMVW [POP1],1.97 ± 0.052,2.38 ± 0.056,2.69 ± 0.077,2.67 ± 0.055
FYKNKYSSKPYKVDNMT [RPN2],2.44 ± 0.067,2.84 ± 0.072,2.79 ± 0.081,2.1 ± 0.075
HGDAAVLLVEKYGAEYD [NAS6],1.94 ± 0.21,,2.96 ± 0.22,3.04 ± 0.19
PQPLFMEDPPSTVSGEL [YMR153W/NUP53],3.38 ± 0.2,3.64 ± 0.19,3.58 ± 0.11,3.12 ± 0.16
AWRTLVGVSHTNEEVRN [CYT1],,2.98 ± 0.13,1.92 ± 0.15,2.18 ± 0.094
DDRDHFGKKRLDLAGPL [RPB2],,2.85 ± 0.16,3.2 ± 0.21,3.31 ± 0.16
LIGCIPYSKNAVEQLAG [YDL088C/ASM4],3.08 ± 0.2,3.01 ± 0.14,2.94 ± 0.088,2.92 ± 0.27
AVPRDELGRSNYGMIAI [FAS1],2.97 ± 0.17,3.16 ± 0.15,3.28 ± 0.071,3.33 ± 0.22
TSIRLEGDELENKTKKD [SRB4],,3.78 ± 0.26,,
DYYQSIYAKYGAKGSTL [FAS2],2.85 ± 0.094,2.79 ± 0.07,2.71 ± 0.067,3.13 ± 0.076
TSLFHKFILSGFIFTSM [RRI2],2.09 ± 0.046,1.66 ± 0.03,1.94 ± 0.07,1.52 ± 0.044
KLSKILPRYQELTKEEA [SMC3],3.16 ± 0.11,3.34 ± 0.094,3.34 ± 0.086,3.35 ± 0.1

# Source: the supplement of paper PMC9732359
